Test system: NCI-H292 cells
Assay: AB-PAS staining of mucus glycoprotein in NCI-H292 cells
Type: cell-based, human
Details: FIG. 1 and 2
Procedure: NCI-H292 cells (human pulmonary mucoepidermoid tumor cell strain, purchased from ATCC) were suspended in 10% FCS (Fetal Calf Serum)-containing RPMI-1640 (produced by Gibco Corp.), sowed on a Lab-Tek 8 well chamber slide (produced by Nunc Corp.) in a density of 6.0×10^4 cells/cm^2, cultured for 72 hours, subjected to the replacement of the culture solution by RPMI-1640 containing 0.1% of BSA, and further cultured for 24 hours.
On the day of the treatment, the culture solution of each well was replaced by RPMI-1640 (containing 0.1% BSA) containing EGF (5 ng/mL, produced by Becton Dickinson Corp.), HB-EGF (5 ng/mL, produced by R & D Corp.), TGF-α (5 ng/mL, produced by Peprotech Corp.), or PBS to start the treatment. Then, the cells were incubated at 37° C. for 24 hours.
After the prescribed 24 hours treatment, the culture supernatant was removed. The residue was once washed with PBS, mixed with 4% paraformaldehyde/PBS, and then allowed to stand at room temperature for one hour to immobilize the cells. The immobilized cells were twice washed with Milli Q water and then stained with AB-PAS. The staining was carried out according to a book (“All of new dyeing methods” p136-150 (Iyaku Shuppansha)). […]

B1: EGF: Epidermal Growth Factor, EGFR ligand, produced by Becton Dickinson Corp. (protein)
chain: PQHWSCPEGTLAGNGNSTCVGPAPFLIFSHGNSIFRIDTEGTNYEQLVVDAGVSVIMDFHYNEKRIYWVDLERQLLQRVFLNGSRQERVCNIEKNVSGMAINWINEEVIWSNQQEGIITVTDMKGNNSHILLSALKYPANVAVDPVERFIFWSSEVAGSLYRADLDGVGVKALLETSEKITAVSLDVLDKRLFWIQYNREGSNSLICSCDYDGGSVHISKHPTQHNLFAMSLFGDRIFYSTWKMKTIWIANKHTGKDMVRINLHSSFVPLGELKVVHPLAQPKAEDDTWEPEQKLCKLRKGNCSSTVCGQDLQSHLCMCAEGYALSRDRKYCEDVNECAFWNHGCTLGCKNTPGSYYCTCPVGFVLLPDGKRCHQLVSCPRNVSECSHDCVLTSEGPLCFCPEGSVLERDGKTCSGCSSPDNGGCSQLCVPLSPVSWECDCFPGYDLQLDEKSCAASGPQPFLLFANSQDIRHMHFDGTDYGTLLSQQMGMVYALDHDPVENKIYFAHTALKWIERANMDGSQRERLIEEGVDVPEGLAVDWIGRRFYWTDRGKSLIGRSDLNGKRSKIITKENISQPRGIAVHPMAKRLFWTDTGINPRIESSSLQGLGRLVIASSDLIWPSGITIDFLTDKLYWCDAKQSVIEMANLDGSKRRRLTQNDVGHPFAVAVFEDYVWFSDWAMPSVMRVNKRTGKDRVRLQGSMLKPSSLVVVHPLAKPGADPCLYQNGGCEHICKKRLGTAWCSCREGFMKASDGKTCLALDGHQLLAGGEVDLKNQVTPLDILSKTRVSEDNITESQHMLVAEIMVSDQDDCAPVGCSMYARCISEGEDATCQCLKGFAGDGKLCSDIDECEMGVPVCPPASSKCINTEGGYVCRCSEGYQGDGIHCLDIDECQLGEHSCGENASCTNTEGGYTCMCAGRLSEPGLICPDSTPPPHLREDDHHYSVRNSDSECPLSHDGYCLHDGVCMYIEALDKYACNCVVGYIGERCQYRDLKWWELRHAGHGQQQKVIVVAVCVVVLVMLLLLSLWGAHYYRTQKLLSKNPKNPYEESSRDVRSRRPADTEDGMSSCPQPWFVVIKEHQDLKNGGQPVAGEDGQAADGSMQPTSWRQEPQLCGMGTEQGCWIPVSSDKGSCPQVMERSFHMPSYGTQTLEGGVEKPHSLLSANPLWQQRALDPPHQMELTQ
production of the mucus glycoprotein: promoted
